Patent publication US20190025332A1 (Novo Nordisk, published 2019)
One block for each binder: values may come before it.

Assays:
[1] = molecular target: T1, hRET(ECR)-hIgG1.1_Fc (human); assay: SPR; analyte 12 nM over immobilised hRet(ECR)-Fc
T1 construct: also called hRET(ECR)-Fc; hRet(ECR)-Fc
Experimental: (§1) hRet and complex of hGFRAL and MIC-1 interactions were assessed by SPR-based binding assay. A Biacore® 4000 (GE Healthcare, Piscataway, N.J., USA) instrument was used. The assays were performed at 25° C. at flow rates of 30 μL/minute in 1× HBS-P running buffer (BR-1006-71, GE Healthcare, Piscataway, N.J., USA). hRet(ECR)-Fc was immobilized through Fc as ligand on the chip. VISTA-Fc was immobilized as negative control ligand. The complex of MIC-1 and hGFRAL was prepared by pre-incubating wtMIC-1 with hGFRAL(ECR)-His. wtMIC-1, hGFRAL(ECR)-His, complex of wtMIC-1 and Ctrl-His, and complex of wtMIC-1 and hGFRAL(ECR)-His at various concentration were run as flow-through analyte.
(§2) Thus, it can be concluded that that hRet binds to hGFRAL in the presence of MIC-1; and Ret, MIC-1 and GFRAL forms a ternary complex.

[2] = molecular target: T2, VISTA-Fc; assay: SPR; analyte 111 nM over immobilised VISTA-Fc (Ctrl-Fc)
T2 construct: Negative control ligand immobilised on the chip; also called Ctrl-Fc
Experimental: as §1, §2

[3] = molecular target: T1, hRET(ECR)-hIgG1.1_Fc; assay: SPR; analyte 111 nM over immobilised hRet(ECR)-Fc
Experimental: as §1, §2

[4] = molecular target: T1, hRET(ECR)-hIgG1.1_Fc; assay: SPR; analyte 333 nM over immobilised hRet(ECR)-Fc
Experimental: as §1, §2

[5] = molecular target: T2, VISTA-Fc; assay: SPR; analyte 12 nM over immobilised VISTA-Fc (Ctrl-Fc)
Experimental: as §1

[6] = molecular target: T2, VISTA-Fc; assay: SPR; analyte 37 nM over immobilised VISTA-Fc (Ctrl-Fc)
Experimental: as §1, §2

[7] = molecular target: T2, VISTA-Fc; assay: SPR; analyte 0 nM over immobilised VISTA-Fc (Ctrl-Fc)
Experimental: as §1, §2

[8] = molecular target: T1, hRET(ECR)-hIgG1.1_Fc; assay: SPR; analyte 0 nM over immobilised hRet(ECR)-Fc
Experimental: as §1, §2

[9] = molecular target: T1, hRET(ECR)-hIgG1.1_Fc; assay: SPR; analyte 37 nM over immobilised hRet(ECR)-Fc
Experimental: as §1, §2

[10] = molecular target: T1, hRET(ECR)-hIgG1.1_Fc; assay: SPR; analyte 1000 nM over immobilised hRet(ECR)-Fc
Experimental: as §1, §2

[11] = molecular target: T2, VISTA-Fc; assay: SPR; analyte 333 nM over immobilised VISTA-Fc (Ctrl-Fc)
Experimental: as §1, §2

[12] = molecular target: T2, VISTA-Fc; assay: SPR; analyte 1000 nM over immobilised VISTA-Fc (Ctrl-Fc)
Experimental: as §1, §2

[13] = molecular target: T3, full length hGFRAL and full length hRET51 co-expressed on cells (human, UniProt Q6UXV0 19-394; P07949 29-1114); assay: cell-based or functional assay
T3 sequence (P07949 29-1114, one chain of several): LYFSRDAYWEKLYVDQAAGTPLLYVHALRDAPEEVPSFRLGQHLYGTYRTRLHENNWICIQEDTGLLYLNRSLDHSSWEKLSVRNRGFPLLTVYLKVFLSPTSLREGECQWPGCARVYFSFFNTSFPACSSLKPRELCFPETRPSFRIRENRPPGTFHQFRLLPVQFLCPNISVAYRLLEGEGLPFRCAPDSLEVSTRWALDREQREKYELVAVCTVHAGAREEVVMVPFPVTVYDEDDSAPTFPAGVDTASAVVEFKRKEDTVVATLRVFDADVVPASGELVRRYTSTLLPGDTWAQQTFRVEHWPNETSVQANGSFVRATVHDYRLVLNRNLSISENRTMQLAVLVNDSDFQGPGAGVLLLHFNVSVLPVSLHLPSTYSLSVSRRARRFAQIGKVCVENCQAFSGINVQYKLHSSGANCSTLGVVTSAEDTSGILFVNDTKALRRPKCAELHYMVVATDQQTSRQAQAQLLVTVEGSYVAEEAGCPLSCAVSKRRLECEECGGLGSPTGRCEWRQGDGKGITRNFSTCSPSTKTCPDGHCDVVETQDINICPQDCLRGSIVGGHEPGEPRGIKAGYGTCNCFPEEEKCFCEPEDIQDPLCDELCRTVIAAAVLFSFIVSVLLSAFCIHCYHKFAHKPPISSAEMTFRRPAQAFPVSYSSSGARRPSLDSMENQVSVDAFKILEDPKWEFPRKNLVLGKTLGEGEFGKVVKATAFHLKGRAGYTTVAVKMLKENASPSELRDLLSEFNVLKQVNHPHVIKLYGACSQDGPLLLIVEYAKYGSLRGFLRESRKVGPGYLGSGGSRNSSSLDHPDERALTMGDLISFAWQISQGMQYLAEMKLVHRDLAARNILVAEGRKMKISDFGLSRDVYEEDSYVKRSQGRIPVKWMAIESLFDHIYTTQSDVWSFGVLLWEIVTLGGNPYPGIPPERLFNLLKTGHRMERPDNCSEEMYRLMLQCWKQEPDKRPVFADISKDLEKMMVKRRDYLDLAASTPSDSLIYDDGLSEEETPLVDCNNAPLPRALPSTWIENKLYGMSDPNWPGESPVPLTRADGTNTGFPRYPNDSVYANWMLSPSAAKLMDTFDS

[14] = molecular target: T3, full length hGFRAL and full length …; assay: binding to BHK21-hGFRAL-IRES-hRET stable cells, median fluorescence intensity
[15] = molecular target: full length hGFRAL and full length hRET9 co-expressed on HEK293 cells (human, UniProt Q6UXV0 19-394; P07949 29-1063); assay: cell-based or functional assay
Sequence of full length hGFRAL and full length hRET9 co-expressed on HEK293 cells (P07949 other isoform, or with tags, fused parts or gaps limits assumed): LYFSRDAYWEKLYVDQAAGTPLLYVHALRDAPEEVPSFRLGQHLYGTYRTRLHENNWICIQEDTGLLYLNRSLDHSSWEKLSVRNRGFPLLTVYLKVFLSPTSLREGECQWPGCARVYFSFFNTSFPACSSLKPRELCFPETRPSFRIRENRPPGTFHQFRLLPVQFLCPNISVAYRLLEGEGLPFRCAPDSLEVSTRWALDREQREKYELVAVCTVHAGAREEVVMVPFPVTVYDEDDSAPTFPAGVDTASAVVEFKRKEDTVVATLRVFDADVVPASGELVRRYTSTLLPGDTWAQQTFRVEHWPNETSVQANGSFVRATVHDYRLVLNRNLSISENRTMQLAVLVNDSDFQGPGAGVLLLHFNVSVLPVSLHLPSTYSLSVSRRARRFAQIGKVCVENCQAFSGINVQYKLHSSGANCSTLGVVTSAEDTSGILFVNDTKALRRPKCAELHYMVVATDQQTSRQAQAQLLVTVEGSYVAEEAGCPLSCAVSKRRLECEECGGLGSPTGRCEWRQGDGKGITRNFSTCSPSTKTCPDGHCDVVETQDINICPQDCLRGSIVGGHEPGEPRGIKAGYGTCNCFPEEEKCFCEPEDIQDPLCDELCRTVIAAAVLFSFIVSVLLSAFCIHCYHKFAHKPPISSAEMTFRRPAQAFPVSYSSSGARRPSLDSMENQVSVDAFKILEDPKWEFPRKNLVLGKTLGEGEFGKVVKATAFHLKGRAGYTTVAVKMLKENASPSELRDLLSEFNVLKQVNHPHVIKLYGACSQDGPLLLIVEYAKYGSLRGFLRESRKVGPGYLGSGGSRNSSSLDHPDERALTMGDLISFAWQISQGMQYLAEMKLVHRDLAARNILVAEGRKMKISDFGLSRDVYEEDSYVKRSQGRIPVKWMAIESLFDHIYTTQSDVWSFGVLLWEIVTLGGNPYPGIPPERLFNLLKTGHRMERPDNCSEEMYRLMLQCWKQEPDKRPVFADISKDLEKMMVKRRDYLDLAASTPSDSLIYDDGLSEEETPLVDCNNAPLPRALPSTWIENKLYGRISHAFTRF

[16] = molecular target: full length hGFRAL and full length hRET43 co-expressed on HEK293 cells (human, UniProt Q6UXV0 19-394; P07949 29-1062); assay: cell-based or functional assay
Sequence of full length hGFRAL and full length hRET43 co-expressed on HEK293 cells (P07949 other isoform, or with tags, fused parts or gaps limits assumed): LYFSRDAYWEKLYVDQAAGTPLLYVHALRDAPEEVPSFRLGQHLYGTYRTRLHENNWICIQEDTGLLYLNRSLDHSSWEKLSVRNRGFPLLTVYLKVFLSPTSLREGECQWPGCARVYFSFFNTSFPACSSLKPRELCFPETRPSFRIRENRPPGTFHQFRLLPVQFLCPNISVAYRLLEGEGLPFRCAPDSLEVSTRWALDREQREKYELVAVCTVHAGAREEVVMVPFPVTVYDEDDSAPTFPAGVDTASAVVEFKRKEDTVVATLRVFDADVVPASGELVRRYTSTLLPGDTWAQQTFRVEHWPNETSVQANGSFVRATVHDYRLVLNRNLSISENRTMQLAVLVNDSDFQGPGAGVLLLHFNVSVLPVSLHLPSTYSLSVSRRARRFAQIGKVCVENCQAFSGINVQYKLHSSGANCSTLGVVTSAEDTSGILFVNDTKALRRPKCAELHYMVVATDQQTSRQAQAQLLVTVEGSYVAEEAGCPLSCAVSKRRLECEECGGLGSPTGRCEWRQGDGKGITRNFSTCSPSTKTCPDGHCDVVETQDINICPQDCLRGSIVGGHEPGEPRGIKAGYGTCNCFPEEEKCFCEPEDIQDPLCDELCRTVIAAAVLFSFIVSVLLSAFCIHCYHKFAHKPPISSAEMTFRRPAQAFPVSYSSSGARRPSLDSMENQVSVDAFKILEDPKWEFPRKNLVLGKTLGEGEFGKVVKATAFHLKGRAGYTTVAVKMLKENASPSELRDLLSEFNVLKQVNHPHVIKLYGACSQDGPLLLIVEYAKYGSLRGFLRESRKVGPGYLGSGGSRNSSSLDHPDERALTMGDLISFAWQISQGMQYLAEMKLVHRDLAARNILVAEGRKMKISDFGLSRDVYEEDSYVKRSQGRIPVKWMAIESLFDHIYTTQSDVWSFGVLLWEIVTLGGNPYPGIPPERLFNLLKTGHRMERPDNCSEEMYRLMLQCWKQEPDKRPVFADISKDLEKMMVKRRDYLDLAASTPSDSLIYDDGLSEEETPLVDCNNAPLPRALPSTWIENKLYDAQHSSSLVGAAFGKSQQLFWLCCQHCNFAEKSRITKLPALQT

[17] = molecular target: T3, full length hGFRAL and full length …; assay: cell-based or functional assay; remark: listed apart in the source

T1 sequence (chain, as listed by the source limits assumed): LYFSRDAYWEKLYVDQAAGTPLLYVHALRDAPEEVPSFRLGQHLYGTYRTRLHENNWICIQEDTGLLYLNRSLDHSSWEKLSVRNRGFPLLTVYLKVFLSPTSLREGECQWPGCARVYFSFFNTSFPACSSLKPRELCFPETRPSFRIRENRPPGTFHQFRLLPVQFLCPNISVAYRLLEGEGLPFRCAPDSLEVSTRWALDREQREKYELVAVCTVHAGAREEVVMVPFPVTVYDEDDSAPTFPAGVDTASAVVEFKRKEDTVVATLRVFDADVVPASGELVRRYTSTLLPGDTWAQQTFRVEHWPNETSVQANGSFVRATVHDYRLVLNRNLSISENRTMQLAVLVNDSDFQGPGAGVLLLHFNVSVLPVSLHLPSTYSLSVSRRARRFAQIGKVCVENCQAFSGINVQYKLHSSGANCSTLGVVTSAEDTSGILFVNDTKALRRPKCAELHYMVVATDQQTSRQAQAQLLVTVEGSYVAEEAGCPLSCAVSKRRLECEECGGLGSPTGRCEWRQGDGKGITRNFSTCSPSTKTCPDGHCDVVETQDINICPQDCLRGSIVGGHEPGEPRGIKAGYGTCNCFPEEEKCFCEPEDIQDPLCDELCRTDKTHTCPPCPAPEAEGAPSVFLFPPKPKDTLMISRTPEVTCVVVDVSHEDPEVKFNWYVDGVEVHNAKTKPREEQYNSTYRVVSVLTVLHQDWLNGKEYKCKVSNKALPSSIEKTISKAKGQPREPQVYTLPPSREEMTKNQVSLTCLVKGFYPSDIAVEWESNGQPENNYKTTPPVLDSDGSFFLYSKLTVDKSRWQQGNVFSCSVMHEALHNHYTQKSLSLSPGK

Response (RU) [1]: -0.0397 RU
Response (RU) [2]: -2.94 RU
Response (RU) [3]: 0.208 RU
Response (RU) [4]: -0.497 RU
Response (RU) [5]: -2.34 RU
Response (RU) [6]: -2.04 RU
Response (RU) [7]: 0 RU
Response (RU) [8]: 0 RU
Response (RU) [9]: -0.105 RU
Response (RU) [10]: -1.11 RU
Response (RU) [11]: -3.48 RU
Response (RU) [12]: -3.85 RU
B1: hGFRAL(ECR)-His (receptor, not shown: small tags and cut ends)
chain: SQTNNCTYLREQCLRDANGCKHAWRVMEDACNDSDPGDPCKMRNSSYCNLSIQYLVESNFQFKECLCTDDFYCTVNKLLGKKCINKSDNVKEDKFKWNLTTRSHHGFKGMWSCLEVAEACVGDVVCNAQLASYLKACSANGNPCDLKQCQAAIRFFYQNIPFNIAQMLAFCDCAQSDIPCQQSKEALHSKTCAVNMVPPPTCLSVIRSCQNDELCRRHYRTFQSKCWQRVTRKCHEDENCISTLSKQDLTCSGSDDCKAAYIDILGTVLQVQCTCRTITQSEESLCKIFQHMLHRKSCFNYPTLSNVKGMALYTRKHANKITLTGFHSPFNGE

Response (RU) [1]: 0.184 RU
Response (RU) [2]: 0.362 RU
Response (RU) [3]: 0.484 RU
Response (RU) [4]: 0.88 RU
Response (RU) [5]: -0.245 RU
Response (RU) [6]: -0.0179 RU
Response (RU) [7]: 0 RU
Response (RU) [8]: 0 RU
EC50 of ERK1/2 phosphorylation; hGFRAL and hRET51 co-transfected PC12 cells [13]: ~0.2 nM
EC50 [14]: 1.3 nM
Response (RU) [9]: 0.467 RU
Response (RU) [10]: 0.527 RU
pERK1/2 (Evision Unit); HEK293 cells; wtMIC-1 0.001000 nM [15]: 1 Evision Unit
pERK1/2 (Evision Unit); HEK293 cells; wtMIC-1 0.030483 nM [15]: 1.07 Evision Unit
pERK1/2 (Evision Unit); HEK293 cells; wtMIC-1 0.091449 nM [15]: 0.988 Evision Unit
pERK1/2 (Evision Unit); HEK293 cells; wtMIC-1 0.274348 nM [15]: 1.07 Evision Unit
pERK1/2 (Evision Unit); HEK293 cells; wtMIC-1 0.823045 nM [15]: 1.17 Evision Unit
pERK1/2 (Evision Unit); HEK293 cells; wtMIC-1 2.469136 nM [15]: 1.24 Evision Unit
pERK1/2 (Evision Unit); HEK293 cells; wtMIC-1 7.407407 nM [15]: 1.3 Evision Unit
pERK1/2 (Evision Unit); HEK293 cells; wtMIC-1 22.222220 nM [15]: 1.26 Evision Unit
pERK1/2 (Evision Unit); HEK293 cells; wtMIC-1 66.666670 nM [15]: 1.32 Evision Unit
pERK1/2 (Evision Unit); HEK293 cells; wtMIC-1 0.001000 nM [16]: 1 Evision Unit
pERK1/2 (Evision Unit); HEK293 cells; wtMIC-1 0.030483 nM [16]: 1.03 Evision Unit
pERK1/2 (Evision Unit); HEK293 cells; wtMIC-1 0.091449 nM [16]: 1.01 Evision Unit
pERK1/2 (Evision Unit); HEK293 cells; wtMIC-1 0.274348 nM [16]: 1.05 Evision Unit
pERK1/2 (Evision Unit); HEK293 cells; wtMIC-1 0.823045 nM [16]: 1.09 Evision Unit
pERK1/2 (Evision Unit); HEK293 cells; wtMIC-1 2.469136 nM [16]: 1.07 Evision Unit
pERK1/2 (Evision Unit); HEK293 cells; wtMIC-1 7.407407 nM [16]: 1.14 Evision Unit
pERK1/2 (Evision Unit); HEK293 cells; wtMIC-1 22.222220 nM [16]: 1.11 Evision Unit
pERK1/2 (Evision Unit); HEK293 cells; wtMIC-1 66.666670 nM [16]: 1.16 Evision Unit
pERK1/2 (Evision Unit); HEK293 cells; wtMIC-1 0.001000 nM [17]: 1 Evision Unit
pERK1/2 (Evision Unit); HEK293 cells; wtMIC-1 0.030483 nM [17]: 1.02 Evision Unit
pERK1/2 (Evision Unit); HEK293 cells; wtMIC-1 0.091449 nM [17]: 0.969 Evision Unit
pERK1/2 (Evision Unit); HEK293 cells; wtMIC-1 0.274348 nM [17]: 1.13 Evision Unit
pERK1/2 (Evision Unit); HEK293 cells; wtMIC-1 0.823045 nM [17]: 1.4 Evision Unit
pERK1/2 (Evision Unit); HEK293 cells; wtMIC-1 2.469136 nM [17]: 1.69 Evision Unit
pERK1/2 (Evision Unit); HEK293 cells; wtMIC-1 7.407407 nM [17]: 1.7 Evision Unit
pERK1/2 (Evision Unit); HEK293 cells; wtMIC-1 22.222220 nM [17]: 1.73 Evision Unit
pERK1/2 (Evision Unit); HEK293 cells; wtMIC-1 66.666670 nM [17]: 1.74 Evision Unit
Response (RU) [11]: 0.226 RU
Response (RU) [12]: -0.515 RU
B2: wild type human MIC-1 (ligand)
chain: ARNGDHCPLGPGRCCRLHTVRASLEDLGWADWVLSPREVQVTMCIGACPSQFRAANMHAQIKTSLHRLKPDTVPAPCCVPASYNPMVLIQKTDTGVSLQTYDDLLAKDCHCI
notes: also called wtMIC-1; hMIC-1

Response (RU) [1]: 0.226 RU
Response (RU) [2]: -1.02 RU
Response (RU) [3]: 5.48 RU
Response (RU) [4]: 8.32 RU
Response (RU) [5]: -1.39 RU
Response (RU) [6]: -1.48 RU
Response (RU) [7]: 0 RU
Response (RU) [8]: 0 RU
Response (RU) [9]: 1.97 RU
Response (RU) [10]: 10.7 RU
Response (RU) [11]: -1.43 RU
Response (RU) [12]: -1.4 RU
B3: complex of wtMIC-1 and hGFRAL(ECR)-His (other)
chain 1: B2 chain
chain 2: B1 chain
notes: Prepared by pre-incubating wtMIC-1 with hGFRAL(ECR)-His; also called wtMIC-1 + hGFRAL(ECR)-His; complex of MIC-1 and hGFRAL; not shown: His tag, not described
